Data: patent publication US20150166621A1 (Hoffmann-La Roche, published 2015)
Square brackets hold non-standard residues; d marks the D form. Nle = CCCC[C@H](N)C(=O)O

B1: peptide of SEQ ID NO: 23 (peptide)
peptide: Ac-KRYDREFLLAFQF[Nle]VYDLGLRRLRQRRRLRRERVRA-NH2
SMILES: CCCC[C@H](NC(=O)[C@H](Cc1ccccc1)NC(=O)[C@H](CCC(N)=O)NC(=O)[C@H](Cc1ccccc1)NC(=O)[C@H](C)NC(=O)[C@H](CC(C)C)NC(=O)[C@H](CC(C)C)NC(=O)[C@H](Cc1ccccc1)NC(=O)[C@H](CCC(=O)O)NC(=O)[C@H](CCCNC(=N)N)NC(=O)[C@H](CC(=O)O)NC(=O)[C@H](Cc1ccc(O)cc1)NC(=O)[C@H](CCCNC(=N)N)NC(=O)[C@H](CCCCN)NC(C)=O)C(=O)N[C@H](C(=O)N[C@@H](Cc1ccc(O)cc1)C(=O)N[C@@H](CC(=O)O)C(=O)N[C@@H](CC(C)C)C(=O)NCC(=O)N[C@@H](CC(C)C)C(=O)N[C@@H](CCCNC(=N)N)C(=O)N[C@@H](CCCNC(=N)N)C(=O)N[C@@H](CC(C)C)C(=O)N[C@@H](CCCNC(=N)N)C(=O)N[C@@H](CCC(N)=O)C(=O)N[C@@H](CCCNC(=N)N)C(=O)N[C@@H](CCCNC(=N)N)C(=O)N[C@@H](CCCNC(=N)N)C(=O)N[C@@H](CC(C)C)C(=O)N[C@@H](CCCNC(=N)N)C(=O)N[C@@H](CCCNC(=N)N)C(=O)N[C@@H](CCC(=O)O)C(=O)N[C@@H](CCCNC(=N)N)C(=O)N[C@H](C(=O)N[C@@H](CCCNC(=N)N)C(=O)N[C@@H](C)C(N)=O)C(C)C)C(C)C
B2: peptide of SEQ ID NO: 24 (peptide)
peptide: Ac-ARVYDLGLRRLRQRRRLRRERVRAKRYDREFLLAFQF[Nle]-NH2
SMILES: CCCC[C@H](NC(=O)[C@H](Cc1ccccc1)NC(=O)[C@H](CCC(N)=O)NC(=O)[C@H](Cc1ccccc1)NC(=O)[C@H](C)NC(=O)[C@H](CC(C)C)NC(=O)[C@H](CC(C)C)NC(=O)[C@H](Cc1ccccc1)NC(=O)[C@H](CCC(=O)O)NC(=O)[C@H](CCCNC(=N)N)NC(=O)[C@H](CC(=O)O)NC(=O)[C@H](Cc1ccc(O)cc1)NC(=O)[C@H](CCCNC(=N)N)NC(=O)[C@H](CCCCN)NC(=O)[C@H](C)NC(=O)[C@H](CCCNC(=N)N)NC(=O)[C@@H](NC(=O)[C@H](CCCNC(=N)N)NC(=O)[C@H](CCC(=O)O)NC(=O)[C@H](CCCNC(=N)N)NC(=O)[C@H](CCCNC(=N)N)NC(=O)[C@H](CC(C)C)NC(=O)[C@H](CCCNC(=N)N)NC(=O)[C@H](CCCNC(=N)N)NC(=O)[C@H](CCCNC(=N)N)NC(=O)[C@H](CCC(N)=O)NC(=O)[C@H](CCCNC(=N)N)NC(=O)[C@H](CC(C)C)NC(=O)[C@H](CCCNC(=N)N)NC(=O)[C@H](CCCNC(=N)N)NC(=O)[C@H](CC(C)C)NC(=O)CNC(=O)[C@H](CC(C)C)NC(=O)[C@H](CC(=O)O)NC(=O)[C@H](Cc1ccc(O)cc1)NC(=O)[C@@H](NC(=O)[C@H](CCCNC(=N)N)NC(=O)[C@H](C)NC(C)=O)C(C)C)C(C)C)C(N)=O

Target: T1, Human eIF4E (aa 28-217) with a C-terminal His tag (human, UniProt P06730 28-217)
T1 construct: also called HH-eIF4E; eukaryotic initiation factor 4E
T1 sequence (P06730 other isoform, or with tags, fused parts or gaps limits assumed): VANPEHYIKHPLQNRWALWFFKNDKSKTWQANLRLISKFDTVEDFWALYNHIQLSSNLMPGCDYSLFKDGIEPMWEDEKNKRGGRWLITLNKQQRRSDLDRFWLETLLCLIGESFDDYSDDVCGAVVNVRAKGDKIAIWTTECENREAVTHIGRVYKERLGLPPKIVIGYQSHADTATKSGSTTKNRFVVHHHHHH
Assay: TR-FRET competition vs biotin-4G2 peptide on HH-eIF4E
Experimental: Test peptides (1.6 mM stock in DMSO) were diluted 3 fold in series in DMSO and solutions were diluted 4 fold in Assay Buffer (50 mM NaPi, pH 6.5, 50 mM KCl, 1 mM DTT, 0.004% NP40 and 0.5 mg/ml gammaglobulin). […] The samples were incubated at room temperature for 20 minutes.
IC50 values were calculated using Condoseo software (Genedata AG, Basel, Switzerland).

Binder | IC50
B1 | 180 nM
B2 | 19 nM
Ac-GAAEAAAYVYDLLLRFLRQRRRLRRERVRA-NH2 [peptide of SEQ ID NO: 25] | 11000 nM
Ac-GAAEAAARVYDLGLRRLRQRRYLRRELLRF-NH2 [peptide of SEQ ID NO: 26] | 250 nM
